Laboratory results: publication PMC12432127, “Assessing the potential of bacterial signal peptides for radiopharmaceutical applications” (Scientific Reports, 2025)
Residues, ends and D or L forms follow the SMILES beside them. Groups on a side chain read outwards from the residue. No end group written: not given here. *: point of attachment. FITC = O=C1OC2(c3ccc(O)cc3Oc3cc(O)ccc32)c2ccc(NC(=S)*)cc21; DOTA = O=C(O)CN1CCN(CC(=O)O)CCN(CC(=O)*)CCN(CC(=O)O)CC1; Ahx = NCCCCCC(=O)O; For = O=C*

How the values were obtained:
in vivo = test: in vivo; parameters: species or system mice; details: male, NOD/SCID, mouse, iv, 250 pmol, total radioactivity
Protocol: (§1) All experiments involving animals were performed in accordance with an animal experimentation license approved by the Zurich Cantonal Veterinary Office, Switzerland (Jason P. Holland; license number ZH095/2023), and in compliance with the […] Animal Welfare Act. This study is reported in accordance with the ARRIVE guidelines (https://arriveguidelines.org). Six to eight-week old male NOD/SCID mice (17-20 g) were obtained from Charles River Laboratories (Lyon, France). Mice were provided with food and water ad libitum. For planar scintigraphy imaging and ex vivo biodistribution studies, mice were injected with 100 μL sterile saline formulations of ~ 250 pmol (~ 10 MBq) [^177Lu]Lu-[…] by intravenous tail-vein injection and anesthetized with isoflurane (2-4% in air). Imaging was performed on Gamma-eye scanner (Bioemtech, Greece) at 5 min and 1 h p.i. Directly after imaging at 1 h p.i., animals were euthanised by isoflurane asphyxiation followed by terminal exsanguination. A total of 13 tissues were removed, rinsed in water, dried in air for approx. 2 min., weighed and counted on a calibrated gamma counter for accumulation of activity. The mass of radiotracer formulation injected into each animal was measured and used to determine the total number of counts per minute (cpm) injected into each mouse by comparison to a standard syringe of known activity and mass.

[1] = parameters: species or system mice; details: mouse, in vivo, iv
Protocol: as §1

[2] = Stability in human plasma (radio-HPLC); assay type: in vitro ADME
Protocol: The radiolabelled compound (50 µL) was added to male human AB plasma (500 µL, Sigma Aldrich, USA, male AB) and incubated at 37 °C. Samples of 100 µL were taken at selected time points. The plasma proteins were precipitated with acetonitrile (-20 °C) and the precipitate was centrifuged for 1 min at 1500 rpm. The supernatant was analyzed by analytical radio-HPLC.

FPR1 = target: T1, FPR1 (Homo sapiens, UniProt P21462); test: Cell internalization of radiotracer, FPR1 transfected HEK293T cells; assay type: cell-based; details: 1000-fold excess, all time points
T1 construct: expressed in transfected cells; host or cells: HEK293T (transient, jetPEI)
T1 sequence (P21462 1-350): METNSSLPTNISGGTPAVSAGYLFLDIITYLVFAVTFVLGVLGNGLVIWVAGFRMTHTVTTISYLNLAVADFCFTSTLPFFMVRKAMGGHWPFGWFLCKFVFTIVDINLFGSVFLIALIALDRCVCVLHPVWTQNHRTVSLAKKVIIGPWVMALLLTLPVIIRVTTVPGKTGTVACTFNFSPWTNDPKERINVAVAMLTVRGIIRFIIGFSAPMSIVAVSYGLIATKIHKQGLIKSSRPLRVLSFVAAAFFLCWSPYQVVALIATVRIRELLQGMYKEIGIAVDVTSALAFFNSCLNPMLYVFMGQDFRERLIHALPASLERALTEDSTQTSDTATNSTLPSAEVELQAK
Protocol: The medium was removed from the wells and replaced by fresh complete growth medium (1.3 mL per well). The inhibitor solution BOC-FLFLF (1000-fold excess against the radiotracer, in PBS/DMSO) was added to the wells in the bottom row (100 µL per well). A solution of PBS and DMSO in the same ratio as the inhibitor solution was added to the wells of the top row (100 µL per well). To each well, the radiotracer solution in the desired concentration was added (100 µL per well). The plate was incubated at 37 °C for the time specified for each experiment. The supernatant was removed, and the cells were placed on ice and rinsed twice with ice cold PBS (1 mL per well). Sodium hydroxide (1 M, 2 × 1 mL) was added to detach the cells and the suspension was collected in counting tubes. The tubes were analyzed with an HIDEX gamma counter (HIDEX, Turku, Finland) using the appropriate detection window for the corresponding radionuclide.

[3] = target: T2, f-MVPIK(TAMRA)I bacterial signal peptide derivative; test: confocal fluorescence binding to transfected HEK293T cells
T2 chain: For-MVPIK(TAMRA)I

[4] = target: T3, f-MVPIK(FITC)I bacterial signal peptide derivative; test: as above
T3 chain: For-MVPIK(FITC)I

With CC[C@H](C)[C@H](NC(=O)[C@H](CCCCNC(=O)CCCCCNC(=O)CN1CCN(CC(=O)O)CCN(CC(=O)O)CCN(CC(=O)O)CC1)NC(=O)[C@@H](NC(=O)[C@@H]1CCCN1C(=O)[C@@H](NC(=O)[C@H](CCSC)NC=O)C(C)C)[C@@H](C)CC)C(=O)O [[^177Lu]Lu-f-MVPIK(Ahx-DOTA)I, metal not drawn] (For-MVPIK([Ahx-DOTA])I-OH) as the molecule, how does the tissue uptake at 1 h (in vivo; biodistribution blood) read?
Its tissue uptake at 1 h is 0.12 ± 0.02 %ID/g.

What about the tissue uptake at 1 h (in vivo; biodistribution bone) of the same molecule?
The tissue uptake at 1 h was 0.75 ± 0.13 %ID/g.

What about the tissue uptake at 1 h (in vivo; biodistribution heart) of the same molecule?
Its tissue uptake at 1 h is 0.09 ± 0.01 %ID/g.

What about the tissue uptake at 1 h (in vivo; biodistribution lg intestine) of the same molecule?
The tissue uptake at 1 h was 0.32 ± 0.12 %ID/g.

What about the tissue uptake at 1 h (in vivo; biodistribution lungs) of the same molecule?
Its tissue uptake at 1 h is 0.79 ± 0.12 %ID/g.

What about the tissue uptake at 1 h (in vivo; biodistribution muscle) of the same molecule?
The tissue uptake at 1 h was 0.18 ± 0.03 %ID/g.

What about the tissue uptake at 1 h (in vivo; biodistribution pancreas) of the same molecule?
The tissue uptake at 1 h was 0.1 ± 0.02 %ID/g.

And the tissue uptake at 1 h (in vivo; biodistribution skin)?
Its tissue uptake at 1 h is 0.49 ± 0.08 %ID/g.

What about the tissue uptake at 1 h (in vivo; biodistribution sm intestine) of the same molecule?
The tissue uptake at 1 h was 0.45 ± 0.09 %ID/g.

And the tissue uptake at 1 h (in vivo; biodistribution stomach)?
Its tissue uptake at 1 h is 0.17 ± 0.05 %ID/g.

And the tissue uptake at 1 h (in vivo; uptake kidneys)?
The tissue uptake at 1 h was 3.35 ± 0.19 %ID/g.

What about the tissue uptake at 1 h (in vivo; uptake liver) of the same molecule?
Its tissue uptake at 1 h is 3.02 ± 0.23 %ID/g.

And the tissue uptake at 1 h (in vivo; uptake spleen)?
The tissue uptake at 1 h was 4.43 ± 0.38 %ID/g.

And the “location of administered activity in scintigraphy images” value [1]?
The value was “the majority of the administered activity was found in the bladder”.

What about the “residual activity in scintigraphy images” value [1] of the same molecule?
Its value is “only minimal residual activity”.

And the “more hydrophilic fragment (partial degradation)” value [2]?
The value was 24%.

What about the “state of conjugate in human plasma” value [2] of the same molecule?
Its value is “completely oxidized”.

Which “effect of blocking agent on cell-bound activity of the radiotracer” value (FPR1) does the source give for BOC-FLFLF here?
The value was “considerably reduced the cell-bound activity”.

B1: FPR1 (protein)
chain: T1 sequence (P21462 1-350)
For B1, which Kd [3] is on record?
The Kd was 3.8 nM.

And the Kd [4]?
Its Kd is 1.1 nM.
